The results in this text go back to PMC3295762, “Gene Expression of the Tumour Suppressor LKB1 Is Mediated by Sp1, NF-Y and FOXO Transcription Factors”.

Data set [1] has as its target T1, GST-FOXO3 (UniProt O43524 1-673). Briefly: EMSA; EMSA: 10% glycerol, 12 mM HEPES pH 7.9, 4 mM Tris-HCl pH 7.9, 60 mM KCl, 1 mM DTT, 0.6 mg/ml BSA, 0.5 ug poly(dI-dC), 20 ul, 30 min at 25 C; supershift 1 h at 4 C. The note with it: protein: commercial; tags: GST; label: 32P; blunt.
For data set [2], the target named is T1, GST-FOXO3. The experiment in a line: competition; unlabeled excess vs N1 probe; EMSA: 10% glycerol, 12 mM HEPES pH 7.9, 4 mM Tris-HCl pH 7.9, 60 mM KCl, 1 mM DTT, 0.6 mg/ml BSA, 0.5 ug poly(dI-dC), 20 ul, 30 min at 25 C; supershift 1 h at 4 C. The note with it: protein: commercial; tags: GST; blunt. A general note: In EMSA bound probe runs differently from free probe, usually more slowly.

T1 sequence (O43524 whole entry): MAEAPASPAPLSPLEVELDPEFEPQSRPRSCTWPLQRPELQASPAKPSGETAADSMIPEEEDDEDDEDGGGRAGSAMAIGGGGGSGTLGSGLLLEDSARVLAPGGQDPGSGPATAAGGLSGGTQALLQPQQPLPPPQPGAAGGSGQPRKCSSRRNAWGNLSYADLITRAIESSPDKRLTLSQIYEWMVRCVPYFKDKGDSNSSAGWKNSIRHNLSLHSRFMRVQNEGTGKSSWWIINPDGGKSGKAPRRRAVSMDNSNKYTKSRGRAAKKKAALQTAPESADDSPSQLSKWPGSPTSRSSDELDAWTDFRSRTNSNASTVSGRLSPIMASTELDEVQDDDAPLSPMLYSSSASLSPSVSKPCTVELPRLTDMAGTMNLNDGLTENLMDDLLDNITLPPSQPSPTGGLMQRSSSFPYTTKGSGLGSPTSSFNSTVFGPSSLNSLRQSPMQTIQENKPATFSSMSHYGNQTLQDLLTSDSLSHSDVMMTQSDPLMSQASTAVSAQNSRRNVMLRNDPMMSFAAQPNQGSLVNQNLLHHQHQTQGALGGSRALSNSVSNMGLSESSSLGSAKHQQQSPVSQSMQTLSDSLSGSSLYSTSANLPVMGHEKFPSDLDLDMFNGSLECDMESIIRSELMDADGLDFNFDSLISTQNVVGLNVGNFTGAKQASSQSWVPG

B1: LKB1 FOXO site oligo WT (dsDNA)
DNA 1: GGGGAGGGAGGTAAACAAGATGGCGGC
DNA 2: GCCGCCATCTTGTTTACCTCCCTCCCC
Take B1: the binding result with GST-FOXO3 [1] is on record as “binds”.

B2: LKB1 FOXO site oligo mutant (dsDNA)
DNA 1: GGGGAGGGAGGTAGCCAAGATGGCGGC
DNA 2: GCCGCCATCTTGGCTACCTCCCTCCCC
In the case of B2, the binding result with GST-FOXO3 [2] is “no binding”.
